Results as given in patent publication US6156511A, “Peptide library and screening method” (Affymax Technologies N.V., priority 1998, dated 2000).
Read-outs that look alike come from different tables or passages of the source.

Columns and labels:
[1] = biological target: headpiece dimer B4.5 (mutant) Q18R (second headpiece) (Escherichia coli) (UniProt P03023); conditions: panning Exp. 3; lacOs plasmid complex stability, site of binding not established
[2] = biological target: headpiece dimer A4.5 (mutant) Q18R (second headpiece) (Escherichia coli) (UniProt P03023); conditions: panning of protein-plasmid complex
[3] = biological target: Lac repressor (LacI)-peptide fusion, full length (Escherichia coli) (UniProt P03023); conditions: plasmid panning on D32.39 antibody; deletion of lacOs, near background
DNA = conditions: cited from earlier work
[4] = biological target: Lac repressor (LacI)-peptide fusion, full length (Escherichia coli, UniProt P03023 P03023:1-360); experiment: panning Exp. 3, partial (B) induction; conditions: chain copies: 4 (stated tetramer)
[5] = tested on: plasmid pCMG14 fragments / lacOs-containing fragments; experiment: Protein-DNA binding experiments with plasmid fragments (gel shift, 32P-labeled fragments); conditions: over-expressed polypeptides; with unlabelled herring DNA competitor
Protocol: To determine the plasmid binding site(s) of headpiece dimer mutant A4.5 and the non-mutant B7, several protein-DNA binding experiments were performed.

wild-type lacO = conditions: single wild-type lacO; cited from earlier work
lacZYA = experiment: Repression of chromosomal lacZYA, direct β-galactosidase assay in strain ARI 20; format: cell-based, E. coli
Text: One can estimate the lacI expression level necessary to fill the available binding sites in a typical plasmid p.MC5 derivative by observing the behavior of strain ARI 20 (lacI^- lacZYA^+) transformed with pMC3 or pMC5 (encoding only the linker peptide GADGA [SEQ. ID NO.:65]). Because the lacO sites in plasmids pMC3 and pMC5 have higher affinity than those in the lacZYA operon, the available repressor should fill the plasmid sites first. Substantial repression of lacZYA should be observed only if there is an excess of repressor beyond the amount needed to fill the plasmid sites. As shown by color level on X-gal indicator plates and direct assays of β-galactosidase (see Miller, Experiments in Molecular Genetics (Cold Spring Harbor Laboratory, Cold Spring Harbor, N.Y. (1972)), incorporated herein by reference), the amount of repressor produced by pMC5 is sufficient to fill the lacO sites and repress greater than 200 fold lacZYA in ARI 20 host cells during growth in normal LB medium (2.4 units compared to 500 units from ARI 20 transformed with vector pBAD18, which has no lacI). The repressor encoded by pMC3 was partially inactivated by the addition of the dynorphin B tail, allowing about 10 fold higher expression of lacZYA (37 units). […]

**Q.** For AATTGTGAGCGCTCACAATT (double strand), which activity (fold enrichment) [1] is on record?
**A.** 850

**Q.** What about the binding signal (fold enrichment) ([2]; plasmid with lacOs) of the same molecule?
**A.** 43

**Q.** Which binding signal (fold drop in enrichment) [3] does the source give for plasmid lacking lacOs here?
**A.** 446

**Q.** What about the binding signal (fold enrichment) ([2]; lacOs not required) of the same molecule?
**A.** 44

**Q.** For “arc repressor: arc repressor of phage P22 (MKGMSKMPQFNLRWPREVLDLVRKVAEENGRSVNSEIYQRVMESFKKEGRIGA; UniProt P03050 1-53, looked up)”, which dissociation half-life (DNA) is on record?
**A.** 1.33 h

B1: lacOs (symmetric lac operator) on plasmid or plasmid fragment (dsDNA)
DNA 1: AATTGTGAGCGCTCACAATT
DNA 2: AATTGTGAGCGCTCACAATT
**Q.** For B1, which activity [4] is on record?
**A.** 155 fold enrichment

B2: lac repressor: 37 kDa product of the E. coli lacI gene, binds lacO (protein, UniProt P03023 1-360, looked up)
Lactose operon repressor: MKPVTLYDVAEYAGVSYQTVSRVVNQASHVSAKTREKVEAAMAELNYIPNRVAQQLAGKQSLLIGVATSSLALHAPSQIVAAIKSRADQLGASVVVSMVERSGVEACKAAVHNLLAQRVSGLIINYPLDDQDAIAVEAACTNVPALFLDVSDQTPINSIIFSHEDGTRLGVEHLVALGHQQIALLAGPLSSVSARLRLAGWHKYLTRNQIQPIAEREGDWSAMSGFQQTMQMLNEGIVPTAMLVANDQMALGAMRAITESGLRVGADISVVGYDDTEDSSCYIPPLTTIKQDFRLLGQTSVDRLLQLSQGQAVKGNQLLPVSLVKRKTTLAPNTQTASPRALADSLMQLARQVSRLESGQ
**Q.** For B2, which “binding to 32P-labeled plasmid fragments” value [5] is on record?
**A.** specific binding of lacI to lacOs -containing fragments

**Q.** What about the association rate constant (wild-type lacO) of the same molecule?
**A.** 7e+09 M⁻¹ s⁻¹

**Q.** And the “half-life for the lac repressor-lacO complex” value (wild-type lacO)?
**A.** about 30 min

B3: pMC5: library plasmid encoding lac repressor with only the linker peptide GADGA (protein, UniProt P03023 1-360, looked up)
Lactose operon repressor: B2 Lactose operon repressor
modifications: C-terminal GADGA linker peptide
**Q.** What does the source list for B3?
**A.** repression of lacZYA (lacZYA; ARI 20, LB medium, compared with vector pBAD18 (no lacI)): greater than 200 fold; β-galactosidase (lacZYA; ARI 20 host cells, normal LB medium): 2.4 units
